Measurements taken from US20260209373A1 (TIANJIN MEDICAL UNIVERSITY GENERAL HOSPITAL, published 2026).
Each block holds one molecule with its values, some of them ahead of it.

Assays:
[1] = target: T1, human BAFFR on HEK-293T-BAFFR cells (human, UniProt Q96RJ3 1-184); test: cell-based or functional assay
T1 sequence: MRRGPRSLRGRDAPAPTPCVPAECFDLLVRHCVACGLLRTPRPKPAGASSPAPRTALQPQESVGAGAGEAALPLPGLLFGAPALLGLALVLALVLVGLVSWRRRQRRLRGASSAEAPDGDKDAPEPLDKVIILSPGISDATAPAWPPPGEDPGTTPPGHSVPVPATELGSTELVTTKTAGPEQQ

[2] = target: T1, human BAFFR on HEK-293T-BAFFR cells; test: flow cytometry on HEK-293T-BAFFR cells, anti-human Fc-647 secondary
Experimental: The cells were resuspended in a suitable volume of staining solution for flow cytometry, so that the final cell concentration per tube reached 2×10⁵ cells/mL.
The antibodies NB467-55, NB467-46, NB467-35, and NB467-8 produced in Example 1, and Lanalumab were respectively diluted to 200 nM. […] After incubation, the cells were washed once with a FACS buffer.
The anti-human FC-647 secondary antibody (Jackson, 109-605-003) was diluted according to the instructions, and 100 μl of the diluted secondary antibody was added to a sample tube. After uniform mixing, the system was incubated at 4° C. for 60 min. After incubation, the cells were washed 3 times with FACS, and the cell precipitate obtained by centrifugation was resuspended in 200 μl of PBS and detected by flow cytometry (Sony, SA3800).

[3] = target: human BAFFR-his protein (Acro, BAR-HP2H6) (human) (UniProt Q96RJ3); test: competition ELISA; plate-coated human BAFFR-his, competitor biotin human BAFF his at 0.2 ug/mL
[4] = target: T2, human BAFFR-his protein (Acro, BAR-HP2H6) (human, UniProt Q96RJ3 7-71, limits assumed); test: as above
T2 construct: Bought protein; not shown: his tag
T2 sequence: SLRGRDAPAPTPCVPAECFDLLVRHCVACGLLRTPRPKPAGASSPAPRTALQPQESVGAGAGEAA
Experimental: Specifically, human BAFFR-his protein (Acro, BAR-HP2H6) was added to a 96-well microplate at 200 ng/well and incubated at 4° C. overnight. On the following day, the plate was washed 3 times with PBST. Then the plate was blocked with 5% w/v skim milk in PBST at 37° C. for 1 h, and then washed with PBS.
The antibody to be tested was 1:3 diluted over gradients from a concentration of 800 nM (diluted with 5% skim milk). Biotin Human BAFF his protein (Acro, BAF-H82Q2) was diluted to 0.2 μg/mL. Control group: 50 μL of diluted Biotin Human BAFF his protein and 50 μL of 5% milk. Experimental group: 50 μL of diluted Biotin Human BAFF his protein and 50 μL of antibody diluted over gradients.
Then, the antibody/Biotin Human BAFF his mixture was added to a plate coated with Human BAFFR-his protein, and incubated at 37° C. for 1 h. The plate was washed 5 times with PBST. The secondary antibody (Chengdu NBbiolab Biotechnology Co., Ltd.) 1:10K diluted with a blocking solution was added and incubate at 37° C. for 1 h. The plate incubated with the secondary antibody was washed 5 times with PBST. 100 μl of a TMB monocomponent developing solution was added to each well, and incubated at 37° C. for 7 min. The reaction was terminated with 50 μL/well of 1 M HCL, and then the absorption value at 450 nm was determined. The median inhibition concentration (IC50 value) was obtained by analyzing the data with Graphpad Prism software.

Molecule: Lanalumab (antibody)
EC50 (ng/ml), ADCC reporter assay (Jurkat-NFAT-CD16a luciferase) [1]: 56.5 ng/mL
EC50 [2]: 3.58 nM
IC50 [3]: 310 nM

B4: NB467-35 (Fc fusion)
chain: QVQLVESGGGLVQPGGSLRLSCAASGFSLEYYAIGWFRQTPGKEREAISCIDSPAKSTYYADSVKGRFTISRDNSKNTVYLQMNSLKAEDTAVYYCAADVYYRGSYLYRSCNPTESKYWGQGTQVTVSS
notes: also called nanobody NB467-35; anti-BAFFR nanobody; not shown: Human IgG1 Fc fused to the VHH
IC50 [4]: 5.13 nM
EC50 (ng/ml), ADCC reporter assay (Jurkat-NFAT-CD16a luciferase) [1]: 2.67 ng/mL
EC50 [2]: 3.24 nM

More lines, in order of falling EC50 [2], values ahead:

IC50 [4]: 30.5 nM
EC50 (ng/ml), ADCC reporter assay (Jurkat-NFAT-CD16a luciferase) [1]: 2.89 ng/mL
EC50 [2]: 1.76 nM
B3: NB467-8 (Fc fusion)
chain: QVQLVESGGGLVQPGGSLRLSCAASGFSLEYYAIGWFRHIPGKEREAVSCISSPGDSTWYVDSVKGRFTISRDNAKNTVYLQMNSLKPEDTAVYHCAADVYYSGSYLSRSCNPHESKYWGQGTQVTVSS
notes: also called nanobody NB467-8; anti-BAFFR nanobody; not shown: Human IgG1 Fc fused to the VHH

IC50 [4]: 30.5 nM
EC50 (ng/ml), ADCC reporter assay (Jurkat-NFAT-CD16a luciferase) [1]: 4.55 ng/mL
EC50 [2]: 1.55 nM
B1: NB467-46 (Fc fusion)
chain: EVQVVESGGGLVQPGGSLRLSCAASGFSLTYYAIGWFRQAPGKEREGVACISGGGDQLYYTDSVKGRFTISRDNAKNTVYLHMNSLKPEDTAVYYCAADVYYSGSYNYRSCNPAESKYWGQGTQVTVSS
notes: also called nanobody NB467-46; anti-BAFFR nanobody; not shown: Human IgG1 Fc fused to the VHH

IC50 [4]: 40.5 nM
EC50 (ng/ml), ADCC reporter assay (Jurkat-NFAT-CD16a luciferase) [1]: 5.09 ng/mL
EC50 [2]: 1.55 nM
B2: NB467-55 (Fc fusion)
chain: EVQVVESGGDLVQPGGSLKLSCQASGFSLTYYAIGWFRQAPGKEREEISCISGDGGMTYYADPVKGRFTISRDNGRNTVYLQMNSLKPEDTAVYYCAADVYYNGNYYSRSCNPAESKYWGQGTQVTVSA
notes: also called nanobody NB467-55; anti-BAFFR nanobody; not shown: Human IgG1 Fc fused to the VHH
